The source of these data is the RNAGym collection of RNA variant scans (doi:10.7554/elife.80360).

B1: Hairpin Ribozyme (parent)
chain: GUCCUCUUUCACGUGCGCGUGAAAGAGAGAAGUGAACCAGAGAAACACACGUUGUGGUAUAUUACCUGGUA

Variants of B1 are the subject of this series. The series can be described thus: self-cleavage, relative activity (ratio to wild type); higher = more cleavage; co-transcriptional.
In the case of GUCCUCAUUCACGUGCGCGUGAAAGAGAGAAGUGAACCAGAGAAACACACGUUGUGGUAUAUUUCCUGGUA [U7A A64U], the self-cleavage turned out to be 0.248.

GUCCUUUUUCACGUGCGCGUGAAAGAGAGAAGUGAACCAGAGAAACACACGUUGUGGUAUAUUACCUGCUA [C6U G69C]: the self-cleavage was determined as 0.178.

Turning to GUCCUUUUUCACGUGCGCGUGAAAGAGAGAAGUGAACCAGAGAAACACACGUUGUGGUAUAUUACCUGUUA [C6U G69U], the self-cleavage amounted to 0.256.

For the variant GUCCUUUUUCACGUGCGCGUGAAAGAGAGAAGUGAACCAGAGAAACACACGUUCUGGUAUAUUACCUGGUA [C6U G54C], the self-cleavage came to 0.311.

Turning to GUCCUCAUUCACGUGCGCAUGAAAGAGAGAAGUGAACCAGAGAAACACACGUUGUGGUAUAUUACCUGGUA [U7A G19A], the self-cleavage was determined as 0.845.

For the variant GUCCUCAUUCACGUGCGCGUUAAAGAGAGAAGUGAACCAGAGAAACACACGUUGUGGUAUAUUACCUGGUA [U7A G21U], the self-cleavage was 0.683.

For the variant GUCCUCAUUCACGUGCGCGUCAAAGAGAGAAGUGAACCAGAGAAACACACGUUGUGGUAUAUUACCUGGUA [U7A G21C], the self-cleavage was determined as 0.664.

For GUCCUCAUUCACGUGCGCGUGAAAGAGAGAAGUGAACCAGAGAAACUCACGUUGUGGUAUAUUACCUGGUA [U7A A47U], the self-cleavage came out at 0.0924.

Turning to GUCCUCAUUCACGUGCGCGUGAAAGAGAGAAGUGAACCAGAGAAACGCACGUUGUGGUAUAUUACCUGGUA [U7A A47G], the self-cleavage is 0.0992.

Turning to GUCCUCAUUCACGUGCGCGUGAAAGAGAGAAGUGAACCAGAGAAACCCACGUUGUGGUAUAUUACCUGGUA [U7A A47C], the self-cleavage is 0.34.

In the case of GUCCUCAUUCACGUGCGCGUGAAAGAGGGAAGUGAACCAGAGAAACACACGUUGUGGUAUAUUACCUGGUA [U7A A28G], the self-cleavage is 1.03.

As to GUCCUCAUUCACGUGCGCGUGAAAGAGCGAAGUGAACCAGAGAAACACACGUUGUGGUAUAUUACCUGGUA [U7A A28C], the self-cleavage turned out to be 0.471.

For GUCCUCAUUCACGUGCGCGUGAAAGAGAGAAGUGAACCAGAGAAACACAGGUUGUGGUAUAUUACCUGGUA [U7A C50G], the self-cleavage was 0.269.

With GUCCUCAUUCACGUGCGCGUGAAAGAGAGAAGUGAACCAGAGAAACACAAGUUGUGGUAUAUUACCUGGUA [U7A C50A], the self-cleavage worked out at 0.175.

Turning to GUCCUCAUUCACGUGCGCGUGAAAGAGAGAAUUGAACCAGAGAAACACACGUUGUGGUAUAUUACCUGGUA [U7A G32U], the self-cleavage came out at 0.149.

With GUCCUCAUUCACGUGCGCGUGAAAGAGAGAAAUGAACCAGAGAAACACACGUUGUGGUAUAUUACCUGGUA [U7A G32A], the self-cleavage was 0.145.

As to GUCCUUUUUCACGUGCGCGUGAAAGAGAGAAGUGAACCAGAUAAACACACGUUGUGGUAUAUUACCUGGUA [C6U G42U], the self-cleavage was 0.323.

As to GUCCUCAUUCACGUGCGCGUGAAAGAGAGAAGUGAACCAGAGAAACACACCUUGUGGUAUAUUACCUGGUA [U7A G51C], the self-cleavage came to 0.972.

In the case of GUCCUUUUUCACGUGCGCGUGAAAGAGAGAAGUGAACCAGAGAAACACACGUAGUGGUAUAUUACCUGGUA [C6U U53A], the self-cleavage turned out to be 0.912.

Take GUCCUCAUUGACGUGCGCGUGAAAGAGAGAAGUGAACCAGAGAAACACACGUUGUGGUAUAUUACCUGGUA [U7A C10G]: the self-cleavage turned out to be 0.541.

For the variant GUCCUCAUUCACGUGCGCGUGAAAGAGAGAAGUGAACCAGAGAAACACACGUUGUGGUAUAUUACCUGGUC [U7A A71C], the self-cleavage is 1.34.

For GUCCUCAUUCACGUGCGCGUGAAAGAGAGAAGUGAACCAGACAAACACACGUUGUGGUAUAUUACCUGGUA [U7A G42C], the self-cleavage turned out to be 0.357.

In the case of GUCCUCAUUCACGUGCGCGUGAAAGAGAGAAGUGAACCAGAUAAACACACGUUGUGGUAUAUUACCUGGUA [U7A G42U], the self-cleavage was found to be 0.173.

Regarding GUCCUCAUUCACGUGAGCGUGAAAGAGAGAAGUGAACCAGAGAAACACACGUUGUGGUAUAUUACCUGGUA [U7A C16A], the self-cleavage is 0.911.

Consider GUCCUCAUUCACGUGCGCGUGAAAGAGAGAAGUGAAUCAGAGAAACACACGUUGUGGUAUAUUACCUGGUA [U7A C37U], for which the self-cleavage was determined as 0.403.

On to GUCCUCAUUCACGUGCGCGUGAAAGAGAGAAGUGAAACAGAGAAACACACGUUGUGGUAUAUUACCUGGUA [U7A C37A], for which the self-cleavage stood at 0.261.

As for GUCCUCAUUCACGUGCGCGUGAAAGAGAGACGUGAACCAGAGAAACACACGUUGUGGUAUAUUACCUGGUA [U7A A31C], the self-cleavage worked out at 0.0614.

Regarding GUCCUCAUUCACGUGCGCGUGAAAGAGAGAGGUGAACCAGAGAAACACACGUUGUGGUAUAUUACCUGGUA [U7A A31G], the self-cleavage was 0.77.

Take GUCCUCAUUCACGUGCGCGUGAAAGAGAGAUGUGAACCAGAGAAACACACGUUGUGGUAUAUUACCUGGUA [U7A A31U]: the self-cleavage is 0.11.

In the case of GUCCUCAUUCCCGUGCGCGUGAAAGAGAGAAGUGAACCAGAGAAACACACGUUGUGGUAUAUUACCUGGUA [U7A A11C], the self-cleavage came out at 0.636.

On to GUCCUCAUUCACGUGCGCGUGAAAGAGAGAAGUGAUCCAGAGAAACACACGUUGUGGUAUAUUACCUGGUA [U7A A36U], for which the self-cleavage was 0.568.

For the variant GUCCUUUUUCACGUGCGCGUGAAAGAGAGAAGUGAACCAGAGAAACACACGUUGUCGUAUAUUACCUGGUA [C6U G56C], the self-cleavage was found to be 0.149.

GUCCUCAUUCACGUGCGCGUGGAAGAGAGAAGUGAACCAGAGAAACACACGUUGUGGUAUAUUACCUGGUA [U7A A22G]: the self-cleavage was found to be 0.61.

Take GUCCUCAUUCACGUGCGCGUGCAAGAGAGAAGUGAACCAGAGAAACACACGUUGUGGUAUAUUACCUGGUA [U7A A22C]: the self-cleavage turned out to be 0.649.

Consider GUCCUCAUUCACGUGCGCGUGAAAGAUAGAAGUGAACCAGAGAAACACACGUUGUGGUAUAUUACCUGGUA [U7A G27U], for which the self-cleavage was 0.251.

With GUCCUCAUUCACGUGCGCGUGAAAGACAGAAGUGAACCAGAGAAACACACGUUGUGGUAUAUUACCUGGUA [U7A G27C], the self-cleavage was 0.197.

Turning to GUCCUCAUUCACGUGCGCGUGAAAGAGAGAAGUGAACCAGAGAAACACACGUUGUCGUAUAUUACCUGGUA [U7A G56C], the self-cleavage turned out to be 0.176.

Regarding GUCCUCAUUCACGUGCGCGUGAAAGAGAGAAGUGAACCAGAGAAACACACGUUGUUGUAUAUUACCUGGUA [U7A G56U], the self-cleavage worked out at 0.128.
